The results in this text go back to US10398755B2, “Clusterin pharmaceuticals and treatment methods using the same” (UNIVERSITY OF SOUTHERN CALIFORNIA, priority 2009, dated 2019).

This assay concerns MMP-9. As to the kind of experiment: MMP inhibition assay (FRET peptide substrate), APMA-activated pro-MMP-9. In kind it is biochemical. How it is done:
Pro-MMP-9 (A) or pro-MMP-2 (C) was incubated with PBS, CLU (50 μg/ml, or 0.63 μM), SB3-CT (2 μM), or BSA (50 μg/ml), and MMP FRET substrate peptides in the presence and absence of […] APMA at RT for 3 h. RFU, relative fluorescence unit, was obtained by considering the read out in PBS as 100%. Each reaction was performed in triplicate. Standard errors were depicted as a bar in each graph. Differences between values of PBS and CLU or SB-3CT reactions were statistically significant by Student t-test: *P=0.0004, **P=0.0001, +P=0.0003, and ++P=0.01. Gelatin zymography was performed with the samples pooled from each reaction set. Pro-MMPs, processed MMPs (MMP-9 or MMP-2), and C-terminal truncated, processed MMP-9 (MMP-9-ΔC) were indicated by arrows. (B) Dose-dependent inhibition of MMP-9 by CLU or SB-3CT was performed in the same condition. MMPs were mixed with CLD in TSCB buffer, 50 mM Tris-HCI, pH, 7.5, 150 mM NaCl, 5 mM CaCl2, 0.002% Brij35 (or otherwise indicated concentration) 30 min prior to substrate addition, and incubated for 3 h at RT in the presence or absence of 0.02 mM p-aminophenylmercuric acetate (APMA). MMP activity was measured using a 5-FAM/QXL520 fluorescence resonance energy transfer (FRET) peptide as a substrate (EXlEm=490 nm/520 nm) (AnaSpec, Fremont, Calif.), according to the manufacturer's protocol. Relative fluorescence unit (RFU) was obtained by subtracting the values of APMA- or enzyme-omitted reactions from those of test samples, and then considering the fluorescence unit of a PBS (vehicle) sample as 100%. Enzyme reactions were performed in black 96-well plate, containing combinations of 10 ng, 5 ng, 5 ng, 10 ng, 2.5 μg, 2.5 μg of MMP-2, MMP-7, catalytic domain of MMP-9, MMP-9, CCLU, and/or BSA, respectively, in 50 μl reaction volume. As MMP substrates (0.4 μM), 520 MMP FRET substrate […] (SEQ ID NO: 9), was used for MMP-2 and MMP-9, and 520 MMP FRET substrate XIV, […] (SEQ ID NO: 10), used for MMP-7 reactions, both of which were purchased from AnaSpec (Fremont, Calif.). Recombinant proteins such as mouse CLU with C-terminal (His)6 (CLU-His), MMP-2, and MMP-7 were purchased from R&D Systems (Minneapolis, Minn.), MMP-9 was purchase from Ana-Spec, Inc. (San Jose, Calif.). The recombinant catalytic domain of human MMP-9 (residue 112-445) was purchased from ProtEra (Sesto Fiorentino, Italy). A gelatinase-specific synthetic inhibitor, SB-3CT, was obtained from Biomol International (Plymouth Meeting, Pa.). Fluorescence was monitored using a Victor^3TM V multilabel counter (PerkinElmer). For the gelatin digestion, a 50 μl mixture of gelatin (20 μg) and CLU (2 μg) was incubated with or without active MMP-9 (70 ng) for 2 hours at 37° C. The reaction products were run on a 12% denaturing SDS/PAGE gel for Coomasie staining. […] To determine whether MMP-9/CLU interaction affects the cleavage process of the propeptide of MMP-9 and/or interferes with enzymatic activity of the processed active enzyme, we performed an in vitro MMP-9 inhibition assay, by adopting FRET assay using a fluorescence-quenched peptide substrate (FIG. 3A). […] We incubated pro-MMP-9 with PBS, CLU, SB-3CT, or BSA, and a fluorescence peptide substrate in the presence or absence of APMA. […] We monitored the change in fluorescence value during the incubation of the reactions up to 3 h, which reflects the enzymatic activity of APMA-activated MMPs. […] At 3 h post incubation, the activity difference was read and reaction products were resolved by gelatin zymography. […]

B1: CLU: secreted disulfide-linked heterodimeric glycoprotein (70-80 KD); assays used recombinant mouse CLU with C-terminal (His)6 (protein, UniProt Q06890 22-448, looked up)
Clusterin: EQEVSDNELQELSTQGSRYINKEIQNAVQGVKHIKTLIEKTNAERKSLLNSLEEAKKKKEDALEDTRDSEMKLKAFPEVCNETMMALWEECKPCLKHTCMKFYARVCRSGSGLVGQQLEEFLNQSSPFYFWMNGDRIDSLLESDRQQSQVLDAMQDSFARASGIIDTLFQDRFFARELHDPHYFSPIGFPHKRPHFLYPKSRLVRSLMSPSHYGPPSFHNMFQPFFEMIHQAQQAMDVQLHSPAFQFPDVDFLREGEDDRTVCKEIRRNSTGCLKMKGQCEKCQEILSVDCSTNNPAQANLRQELNDSLQVAERLTEQYKELLQSFQSKMLNTSSLLEQLNDQFNWVSQLANLTQGEDKYYLRVSTVTTHSSDSEVPSRVTEVVVKLFDSDPITVVLPEEVSKDNPKFMDTVAEKALQEYRRKSRAE
modifications: C-terminal His6 tag
B1: the “average inhibition of MMP-9, three independent experiments in triplicate” value (50 μg/ml of CLU, p=0.002) is given as 35%. Where the note is “APMA-treated reactions”, the “effect on APMA-induced processing of pro-MMP-9 (zymography)” value was “did not affect the enzyme processing by APMA”. In addition, the “inhibition of the activity of MMP-9” value (CLU 50 μg/ml (0.63 μM), APMA, RT 3 h, 0.002% Brij 35, compared with PBS and BSA) is given as 28%. The “dose-dependent inhibition of MMP-9, comparison with SB-3CT” value (FIG. 3B) is “stronger MMP-9 inhibitor than a synthetic gelatinase inhibitor, SB-3CT”. Moreover, the “MMP-9 inhibition at high detergent concentration” value (pro-MMP-9 or APMA-activated MMP-9, 0.04% Brij 35 or NP-40) is reported as “little MMP-9 inhibition”.
